These results are taken from patent publication US10925971B2, “Methods of treating PRLR positive breast cancer” (Regeneron Pharmaceuticals, Inc., priority 2016, dated 2021).

The subject of one experiment is MCF7/PRLR tumors. Description: MCF7/PRLR breast cancer xenograft, tumor size and tumor growth inhibition. Conditions: NCr Nude mice, multi-dose 15 mg/kg. Type of experiment: in vivo, NCr nude mice. The method, boiled down: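 MCF7/PRLR cells in mammary fat pad of female NCr nude mice, PC3/PRLR in flank of male SCID, T47D #11 in flank of female CB17 SCID, all with estrogen pellets.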

Experiment [1] deals with T1, dimeric human PRLR (hPRLR.mFc; SEQ ID NO:402) (Homo sapiens, UniProt P16471).
T1 construct: dimeric (hPRLR.mFc)
The experiment can be described thus: Surface plasmon resonance (Biacore T200), antibody-capture format. Type of experiment: binding. Conditions: analyte hPRLR.mFc. The method, boiled down:
(§1)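 Antibodies (human IgG1 Fc) captured on an anti-human Fc sensor surface; soluble monomeric (.mmh) or dimeric (.mFc) PRLR injected as analyte. ka and kd obtained by fitting to a 1:1 binding model.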

Experiment [2] deals with T2, monomeric human PRLR (hPRLR.mmh; SEQ ID NO:401) (Homo sapiens, UniProt P16471).
T2 construct: soluble monomeric (hPRLR.mmh); mmh (myc-myc-hexahistidine) (C)
The description is as above. Type of experiment: binding. Conditions: analyte hPRLR.mmh. The method in brief:
as §1

Experiment [3] deals with Macaca fascicularis PRLR (mfPRLR.mmh; SEQ ID NO:403). Described as above. Format: binding. Conditions: analyte mfPRLR.mmh. The method, boiled down: as §1
For experiment [4], the target named is T3, native PRLR expressing T47D cells (Homo sapiens, UniProt P16471).
T3 construct: a native PRLR expressing cell line (T47D); endogenous in cells; host or cells: T47D
T3 sequence (P16471 25-622): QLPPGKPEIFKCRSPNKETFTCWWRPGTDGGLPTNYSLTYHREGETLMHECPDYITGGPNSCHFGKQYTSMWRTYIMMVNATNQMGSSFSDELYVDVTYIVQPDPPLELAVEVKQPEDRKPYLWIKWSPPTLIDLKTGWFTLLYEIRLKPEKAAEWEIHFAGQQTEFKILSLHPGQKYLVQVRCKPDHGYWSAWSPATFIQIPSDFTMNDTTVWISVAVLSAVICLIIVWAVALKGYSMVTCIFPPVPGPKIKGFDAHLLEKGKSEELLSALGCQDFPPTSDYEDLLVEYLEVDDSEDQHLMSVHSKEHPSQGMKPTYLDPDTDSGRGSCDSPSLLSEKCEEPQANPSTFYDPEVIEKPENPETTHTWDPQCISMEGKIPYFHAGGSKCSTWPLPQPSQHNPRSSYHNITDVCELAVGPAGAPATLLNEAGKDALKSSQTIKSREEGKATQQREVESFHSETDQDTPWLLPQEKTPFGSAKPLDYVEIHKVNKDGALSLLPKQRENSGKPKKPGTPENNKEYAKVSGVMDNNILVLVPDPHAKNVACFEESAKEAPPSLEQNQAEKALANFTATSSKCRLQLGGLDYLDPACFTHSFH
Description: FACS cell surface binding. The method, boiled down:
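Binding expressed as mean fluorescence fold change above isotype background, measured by FACS after 30 min on ice with 10 μg/ml antibody and PE-conjugated anti-human detection. T47D, which natively expresses PRLR, tested with engineered HEK293/hPRLR and non-expressing HEK293 cells.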

Another experiment deals with HEK293 parental cells. Description: FACS cell surface binding. Details: species or system human. The method in brief:
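Flow cytometry: 1×10^5 cells/sample; primary Ab 10 μg/ml, 30 min on ice; 2 washes; PE anti-human 2° 10 μg/ml, 30 min on ice. Cells were HEK293 stably expressing HA-tagged PRLR of the given species, or untransfected HEK293. Readout was MFI fold over isotype.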

Setting [5] is: MCF7/PRLR tumors TRIAL #2, Day 63.

T1 sequence (P16471 with tags, fused parts or gaps): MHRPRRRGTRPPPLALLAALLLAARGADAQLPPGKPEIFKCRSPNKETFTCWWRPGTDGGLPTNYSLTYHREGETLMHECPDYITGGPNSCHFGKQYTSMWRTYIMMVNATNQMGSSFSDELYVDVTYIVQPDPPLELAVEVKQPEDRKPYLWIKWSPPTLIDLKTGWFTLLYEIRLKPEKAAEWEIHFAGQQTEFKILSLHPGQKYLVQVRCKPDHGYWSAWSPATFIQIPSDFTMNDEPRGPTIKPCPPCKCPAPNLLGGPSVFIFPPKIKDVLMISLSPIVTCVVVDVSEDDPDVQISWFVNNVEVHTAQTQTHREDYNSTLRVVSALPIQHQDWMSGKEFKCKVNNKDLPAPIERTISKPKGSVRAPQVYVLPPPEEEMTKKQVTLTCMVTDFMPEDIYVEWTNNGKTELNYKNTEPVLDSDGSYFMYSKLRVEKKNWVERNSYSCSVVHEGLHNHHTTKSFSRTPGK
T2 sequence (P16471 with tags, fused parts or gaps): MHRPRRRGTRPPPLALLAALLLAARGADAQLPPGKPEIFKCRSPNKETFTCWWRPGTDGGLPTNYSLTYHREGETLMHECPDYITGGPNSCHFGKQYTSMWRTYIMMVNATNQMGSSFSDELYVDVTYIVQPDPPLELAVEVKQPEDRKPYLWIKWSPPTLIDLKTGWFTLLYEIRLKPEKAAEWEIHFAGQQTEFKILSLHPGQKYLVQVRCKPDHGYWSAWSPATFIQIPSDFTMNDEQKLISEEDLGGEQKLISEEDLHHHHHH
Chain of Macaca fascicularis PRLR (mfPRLR.mmh; SEQ ID NO:403) (as listed by the source): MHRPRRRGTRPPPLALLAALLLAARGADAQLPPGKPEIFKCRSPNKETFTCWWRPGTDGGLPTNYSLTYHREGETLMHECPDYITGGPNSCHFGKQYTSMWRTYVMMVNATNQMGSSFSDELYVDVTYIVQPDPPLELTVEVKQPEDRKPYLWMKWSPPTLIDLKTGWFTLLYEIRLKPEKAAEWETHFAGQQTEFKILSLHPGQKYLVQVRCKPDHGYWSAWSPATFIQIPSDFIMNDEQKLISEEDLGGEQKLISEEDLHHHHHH

B1: H1H6782P: fully human anti-PRLR antibody, non-blocking; HCVR/LCVR SEQ ID NOs 66/74 (antibody, V domains shown)
VH: EVQLVESGGGLVQPGRSLRLSCAASGFTFDDYAMHWVRQAPGKGLEWVSGIIWNSGHIGYGDSVKGRFTISRDNAKKSLYLQMNSLRAEDTALYYCARDSGRYQSYFDYWGQGTLVTVSS
VL: DIQMTQSPSTLSASVGDRVTITCRASHIISSWLAWYQQKPGKAPKVLIFKASSLESGVPSRFSGSGSGTEFTLTISSLQPDDFATYYCQQYNTYSRTFGQGTKVEIK
Regarding B1, the “Average Tumor Growth Inhibition (%)” value in the experiment with MCF7/PRLR tumors (setting [5]) is on record as 88%. The “Final Tumor size mm^3 (mean ± SEM)” value in the experiment with MCF7/PRLR tumors (setting [5]) is given as 300 ± 83 mm^3. In addition, the ka was 317000 M/s in experiment [1] (25° C.); 598000 M/s in experiment [1] (37° C.); 360000 M/s in experiment [2] (25° C.); 557000 M/s in experiment [2] (37° C.); 266000 M/s in experiment [3] (25° C.); 385000 M/s in experiment [3] (37° C.). Further, the kd in experiment [1] (25° C.) came to 7.13e-05 s⁻¹; in experiment [1] (37° C.) it was 0.00013 s⁻¹; in experiment [2] (25° C.), 0.000247 s⁻¹; in experiment [2] (37° C.) it was 0.000716 s⁻¹; in experiment [3] (25° C.) it was 0.000279 s⁻¹; in experiment [3] (37° C.), 0.000767 s⁻¹. The “FACS Cell Binding” value in experiment [4] is listed as 43 Fold Above Background; in the experiment on HEK293 parental cells it was 3 Fold Above Background.

B2: H1H6765P: fully human anti-PRLR antibody, human IgG1 Fc; HCVR/LCVR SEQ ID NOs 18/26 (antibody, V domains shown)
VH: EVQLVESGGGVVRPGGSLRLSCVGSGFSFDDHGMNWVRQGPGKGLEWVSGFNWNGGSTNYAESVKGRFTISRDNARNSLFLQMNSLRAEDTALYYCVRGRSGWFNDAFDVWGPGTMVTVSS
VL: EIVLTQSPGTLSLSPGERATLSCRASQTINSNYLAWYRQKPGQTPRLLIYGTSSRATGIPDRFSGSGSGTDFSLTISRLEPEDFAVFYCQQYAGLPTFGPGTKVDIK
Regarding B2, in the experiment with MCF7/PRLR tumors (setting [5]), the “Average Tumor Growth Inhibition (%)” value stood at 19%. In addition, the “Final Tumor size mm^3 (mean ± SEM)” value in the experiment with MCF7/PRLR tumors (setting [5]) is 737 ± 182 mm^3. Besides, the ka was found to be 869000 M/s in experiment [1] (25° C.); 801000 M/s in experiment [1] (37° C.); 907000 M/s in experiment [2] (25° C.); 1.25e+06 M/s in experiment [2] (37° C.); 527000 M/s in experiment [3] (25° C.); 1.06e+06 M/s in experiment [3] (37° C.). Further, the kd was found to be 3.41e-05 s⁻¹ in experiment [1] (25° C.); 0.000103 s⁻¹ in experiment [1] (37° C.); 0.000113 s⁻¹ in experiment [2] (25° C.); 0.000366 s⁻¹ in experiment [2] (37° C.); 0.000134 s⁻¹ in experiment [3] (25° C.); 5.37e-05 s⁻¹ in experiment [3] (37° C.). The “FACS Cell Binding” value came to 40 Fold Above Background in experiment [4] and 2 Fold Above Background in the experiment with HEK293 parental cells.

B3: H1H6953N: anti-PRLR antibody, human IgG1 Fc form of H1M6953N of Table 1; HCVR/LCVR SEQ ID NOs 274/282 (antibody, V domains shown)
VH: EVQLLESGGGLVQPGGTLRLSCAASGFTFSAYAMSWVRQAPGKGLEWVSSINVRAGDTYYADSVKGRFTISRDNSKNTLFLLMNSLRAEDTAAYYCAKARYSSNWGFDFWGQGTLVTVSS
VL: DIVMTQSPDSLTVSLGARTTINCQSSQTILHSSNNHNYLAWYQQKPGLPPKLLIYWSSTRESGVPDRFSGSGSGTDFTLTISSLQAEDVAIYYCQQYSNTPYTFGQGTKLEIN
For B3, the “Final Tumor size mm^3 (mean ± SEM)” value in the experiment with MCF7/PRLR tumors (MCF7/PRLR tumors TRIAL #1, Day 52) turned out to be 421 ± 23 mm^3. Moreover, the ka is 711000 M/s in experiment [1] (25° C.); 1.47e+06 M/s in experiment [1] (37° C.); 792000 M/s in experiment [2] (25° C.); 1.1e+06 M/s in experiment [2] (37° C.); 727000 M/s in experiment [3] (25° C.); 947000 M/s in experiment [3] (37° C.). The kd in experiment [1] (25° C.) came to 4.77e-05 s⁻¹; in experiment [1] (37° C.), 0.00017 s⁻¹; in experiment [2] (25° C.), 0.000212 s⁻¹; in experiment [2] (37° C.), 0.00122 s⁻¹; in experiment [3] (25° C.), 0.000319 s⁻¹; in experiment [3] (37° C.), 0.00256 s⁻¹. The “FACS Cell Binding” value in experiment [4] turned out to be 40 Fold Above Background; in the experiment with HEK293 parental cells it was 2 Fold Above Background.
